Source: PMC4213662

Experiments:
[1] = molecular target: ribosome-nascent chain complex actively translating a 3'-truncated lepB mRNA encoding the first 155 amino acids (Cy3B-labeled 50S subunit) (E. coli (strain MC4100) | E. coli) (UniProt P00803); test: FRET or BRET; as a1 but 250 nM EF-G (slower elongation)
[2] = molecular target: ribosome-nascent chain complex actively translating a 3'-truncated lepB mRNA encoding the first 155 amino acids (Cy3B-labeled 50S subunit) (E. coli (strain MC4100) | E. coli) (UniProt P00803); test: FRET or BRET; single-molecule FRET in zero-mode waveguides; 100 nM Cy5-SRP in solution, RNCs translating lepB mRNA (155 amino acids) held by the biotinylated mRNA; 750 nM EF-G; Tris-based polymix buffer with 5 mg/ml BSA and 10 µM Blocking oligo; rates estimated from the time at which curves reach 50%

## Cy5-labeled E. coli signal recognition particle (Ffh(E153C)-Cy5 reconstituted with 4.5S RNA) (from UniProt P0AGD7 1-453) (complex)
[1]
  half-time of arrival after the initial binding event (2nd–10th arrivals): 12 s
  half-time of first arrival: 350 s
[2]
  half-time of arrival after the initial binding event (2nd–10th arrivals): 5 s
  half-time of first arrival: 280 s
  kon: 1.8e+06 M⁻¹ s⁻¹
